{"source": "paper PMC7265331", "target": "Cab45 (UniProt Q9BRK5)", "experiment": "GFP-Cab45 oligomerization assay, confocal microscopy", "settings": "reference: GFP-Cab45-WT; sites S99,T131,S142,T193,S349"}
{"substance": "Cab45 (from UniProt Q9BRK5) GFP-Cab45-5pXE", "values": [{"measurement": "other: share of oligomers with maximum intensity <500 a.u.", "result": "same; reference 55"}]}
